This data set deals with Transferrin receptor (TfR, TFRC) (UniProt P02786 SEQ:89-760). In words: SPR; value only in figure, stated to be in similar range to TR14; Biacore T100, biotinylated aptamer on SA chip, 30 mM Tris-HCl pH 7.5, 150 mM NaCl, 5 mM MgCl2. The following applies: SELEX was against the extracellular domain; chain copies: 2; label: biotin (SPR), Cy3 (cell imaging). The method, then:
The kinetics of TR14 S1-3 were analysed by surface plasmon resonance (SPR) technology. The Biacore T100 (GE Healthcare, Uppsala, Sweden) was used to monitor label-free the aptamer-transferrin receptor interactions in real time. Biotinylated aptamers were coupled to a streptavidin-coated Biocore chip (SensorChip SA, BR-1003-98, General Electric Company) by an injection in binding buffer at concentration of 25 μg/mL (30 mM Tris-HCl, pH 7.5, 150 mM NaCl, 5 mM MgCl2) at 10 uL/min. The RNA was refolded by heating to 65° C. followed by cooling to 37° C. before immobilization. To measure binding kinetics, five concentrations of purified transferrin receptor protein were injected at a flow rate of 10 uL per minute. After binding, the surface was regenerated by injecting 50 mM NaOH at flow rate of 15 μL per minutes for 20 seconds. Data from the control surface were subtracted. BlAevaluation software (GE Healthcare) was used for analysis. The binding data were fit to a 1:1 binding with a mass transfer model to calculate kinetic parameters.
For orientation: Surface plasmon resonance follows binding to a sensor surface in real time, without labels.

Chain of Transferrin receptor (TfR, TFRC) (P02786 89-760): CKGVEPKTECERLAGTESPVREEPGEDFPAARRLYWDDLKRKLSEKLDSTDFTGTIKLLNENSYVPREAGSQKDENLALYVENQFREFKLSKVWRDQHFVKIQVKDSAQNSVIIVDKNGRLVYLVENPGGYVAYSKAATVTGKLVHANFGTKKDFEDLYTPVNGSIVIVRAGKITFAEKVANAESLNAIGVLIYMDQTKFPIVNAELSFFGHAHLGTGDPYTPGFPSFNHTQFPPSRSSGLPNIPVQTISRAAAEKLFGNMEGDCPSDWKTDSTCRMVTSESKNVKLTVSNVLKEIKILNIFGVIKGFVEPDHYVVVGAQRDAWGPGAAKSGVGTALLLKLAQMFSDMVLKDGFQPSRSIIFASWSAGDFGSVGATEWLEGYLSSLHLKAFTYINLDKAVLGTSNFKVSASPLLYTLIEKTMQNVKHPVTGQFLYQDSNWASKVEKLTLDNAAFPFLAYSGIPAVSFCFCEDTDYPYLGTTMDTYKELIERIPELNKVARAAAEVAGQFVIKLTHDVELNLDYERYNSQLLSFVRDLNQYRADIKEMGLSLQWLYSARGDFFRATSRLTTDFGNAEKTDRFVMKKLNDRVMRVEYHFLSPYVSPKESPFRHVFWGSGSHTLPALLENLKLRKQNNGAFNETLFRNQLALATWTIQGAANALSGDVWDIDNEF

B1: TR14 S1-3 (22-mer) (ssRNA)
RNA: UUUAUUCACAUUUUUGAAUUGA
modifications: 2'-F (library of 2'F RNAs; positions not stated)
As to B1, the binding result is recorded as “binds”.

The values above are taken from US20200172905, “RNA APTAMERS AGAINST TRANSFERRIN RECEPTOR (TFR)” (CITY OF HOPE, published 2020).
